Reference: patent US20050048579A1, “Tertiary structures of ICAM-1/LFA-1 modulators” (priority 2003, published 2005)
Bridge positions count the residues as written; N and C are the ends. Ends that are not written are not given here. Peptide text beside a SMILES is read from it.

biological target: T1, Intercellular adhesion molecule-1 (ICAM-1) on JY cells (UniProt P05362 28-532, limits assumed); assay: cell-based or functional assay; conditions: not given
T1 sequence (P05362 28-532 limits assumed): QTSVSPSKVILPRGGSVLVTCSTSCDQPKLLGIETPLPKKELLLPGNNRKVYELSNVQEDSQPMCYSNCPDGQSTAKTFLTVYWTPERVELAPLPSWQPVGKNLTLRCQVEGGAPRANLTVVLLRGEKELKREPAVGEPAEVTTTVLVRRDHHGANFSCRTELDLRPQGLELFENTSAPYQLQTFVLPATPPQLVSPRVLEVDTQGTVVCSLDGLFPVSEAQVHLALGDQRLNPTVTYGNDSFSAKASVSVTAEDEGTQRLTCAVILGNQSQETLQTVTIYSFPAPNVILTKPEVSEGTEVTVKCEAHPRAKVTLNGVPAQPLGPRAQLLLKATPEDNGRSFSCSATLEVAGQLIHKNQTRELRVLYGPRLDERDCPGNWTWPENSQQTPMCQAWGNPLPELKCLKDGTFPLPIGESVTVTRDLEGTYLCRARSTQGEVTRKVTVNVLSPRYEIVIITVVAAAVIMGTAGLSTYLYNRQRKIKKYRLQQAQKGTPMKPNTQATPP

| Molecule | IC50, inhibition of JY cell aggregation, 360 minute incubation [µM] | fold improvement of activity over IP01 (JY cell aggregation) [fold] | fold improvement of inhibition over IP01 (JY cell aggregation IC50) [fold] | fold smaller IC50 than IP01 (JY cell aggregation, 360 minutes) [fold] |
| --- | --- | --- | --- | --- |
| CLLRMRSIC (disulfide 1-9) [IP01 (inhibitory peptide-01)] | 580 |  |  |  |
| CLLRMRSAC (disulfide 1-9) [IP02] | 480 | 2 | 2.5 |  |
| CLLRMKSAC (disulfide 1-9) [IP02-K6] | 90 |  |  | ~6 |
| CLLRMRSLC (disulfide 1-9) [IP02-L8] | > 1000 |  |  |  |
| CLLRMRSVC (disulfide 1-9) [IP02-V8] | ~700 |  |  |  |
| CLVRMRSAC (disulfide 1-9) [IP02-V3] | > 1000 |  |  |  |
| CVLRMRSAC (disulfide 1-9) [IP02-V2] | > 1000 |  |  |  |
| CLIRMRSAC (disulfide 1-9) [IP02-I3] | ~700 |  |  |  |

biological target: T1, Intercellular adhesion molecule-1 …; assay: cell-based or functional assay; conditions: not given; remark: another data set of the same source

| Molecule | IC50, inhibition of JY cell aggregation at 2 hours [µM] |
| --- | --- |
| CLLRMRSIC (disulfide 1-9) [IP01 (inhibitory peptide-01)] | 530 |
| CALRMRSIC (disulfide 1-9) [IP01-A2] | > 1000 |
| CLLRMRSAC (disulfide 1-9) [IP02] | 210 |
| CLLRMRAIC (disulfide 1-9) [IP01-A7] | 740 |
| CLLRMASIC (disulfide 1-9) [IP01-A6] | > 1000 |
| CLLRARSIC (disulfide 1-9) [IP01-A5] | > 1000 |
| CLARMRSIC (disulfide 1-9) [IP01-A3] | > 1000 |

biological target: T2, LFA-1 binding to ICAM-1 (JY cells) (Homo sapiens, UniProt P05362); assay: LFA-1:ICAM-1 dependent JY cell aggregation assay (2 hours); format: cell-based; conditions: not given
T2 construct: endogenous in cells; host or cells: JY cells
Protocol: Cysteine-constrained peptides, synthesized by Biopeptide (San Diego, Calif., USA), were isolated using high-performance liquid chromatography, and their correct mass was confirmed by mass spectrometry. The peptides were dissolved in 5% dimethylsulfoxide in phosphate-buffered saline (PBS) at concentrations of 10 mm and stored at −80° C. until use. The mAb directed against LFA-1 (TS1/18) was purified from a hybridoma line ([…], Manassas, Va.) as described previously (Oj, V. T. & Herzenberg, T. (1980) Immunoglobulin-producing hybrid celllines. In Selected Methods in Cellular Immunology (Mishell, B. B. & Shiigi, S. M.,eds), H. H. Freeman, New York; Larson, R. S., Brown, D. C. & Sklar, L. A.(1997) Retinoic acid induces aggregation of the acute promyelocytic leukemia cell lineNB-4 by utilization of LFA-1 and ICAM-2.Blood 90, 2747-2756; Rothlein, R. & Springer, T. A. (1986) The requirement for lymphocyte function associated antigen 1 in homotypic leukocyte adhesion stimulated by phorbol ester. J. Exp.Med. 163, 1132-1149).
(§1) JY cells were maintained in RPMI-1640 medium supplemented with 10% fetal bovine serum at 37° C. in an atmosphere containing 5% CO2 in air. The aggregation of JY cells, which is dependent on LFA-1 binding to ICAM-1, was determined as previously reported (Shannon, J. P., Silva, M. V., Brown, D. C. & Larson, R. S. (2001) Novel cyclic peptide inhibits intercellular adhesion molecule-1-mediated cell aggregation. J. Pept. Res. 58, 140-150; Larson, R. S., Brown, D. C. & Sklar, L. A.(1997) Retinoic acid induces aggregation of the acute promyelocytic leukemia cell lineNB-4 by utilization of LFA-1 and ICAM-2.Blood 90, 2747-2756; Rothlein, R. & Springer, T. A. (1986) The requirement for lymphocyte function associated antigen 1 in homotypic leukocyte adhesion stimulated by phorbol ester. J. Exp.Med. 163, 1132-1149). Briefly, JY cells were washed twice with serum-free media and resuspended at a concentration of 4×10^5 cells/mL. Cells were then preincubated with various concentrations of peptides or mAb for 15 minutes at room temperature. A 50 μL aliquot of cells was seeded in each well of a 96-well flat-bottomed microtiterplate followed by the addition of either peptide or mAb to a final volume of 100 μL. Cells were allowed to aggregate at 37° C. in humidified air containing 5% CO2. Within each well, the number of aggregates and the total number of free (single) cells were counted by inverted phase microscopy. Percent aggregation, P, was then determined as follows: P=100(1−Ff/Fi), where Ff (Fi) is the final (initial) number of free cells. Percent aggregation was then used to calculate percent inhibition, I, as follows: […], where Pi (Pc) is the percent aggregation with modulatory peptide (control). The constants for 50% inhibition (IC50) were derived from a linear fit to the percent inhibition at four concentrations (50 μm, 100 μm, 500 μm, and 1 mm) of inhibitory peptide. Each experiment was performed at least three times, with each condition performed in duplicate. The data are reported as the mean values and the SDs of each IC50.

T2 sequence (P05362 28-532): as the sequence (P05362 28-532 limits assumed) above

| Molecule | IC50 [µM] |
| --- | --- |
| CC[C@H](C)[C@@H]1NC(=O)[C@H](CO)NC(=O)[C@H](CCCNC(=N)N)NC(=O)[C@H](CCSC)NC(=O)[C@H](CCCNC(=N)N)NC(=O)[C@H](CC(C)C)NC(=O)[C@H](C)NC(=O)[C@@H](N)CSSC[C@@H](C(=O)O)NC1=O [IP01-A2, CALRMRSIC] (H-CALRMRSIC-OH; disulfide 1-9; N-terminus and C-terminus assumed) | > 1000 |
| CC[C@H](C)[C@@H]1NC(=O)[C@H](CO)NC(=O)[C@H](CCCNC(=N)N)NC(=O)[C@H](CCSC)NC(=O)[C@H](CCCNC(=N)N)NC(=O)[C@H](C)NC(=O)[C@H](CC(C)C)NC(=O)[C@@H](N)CSSC[C@@H](C(=O)O)NC1=O [IP01-A3, CLARMRSIC] (H-CLARMRSIC-OH; disulfide 1-9; N-terminus and C-terminus assumed) | > 1000 |

biological target: T2, LFA-1 binding to ICAM-1 (JY cells); assay: LFA-1:ICAM-1 dependent cell aggregation assay, slightly modified (360 minute incubations); format: cell-based; conditions: cell aggregation
Protocol: as §1
The same general procedure was used as described in Example 1.
The functional activity of each IP02 derivative was measured in a slightly-modified version of the previously described cell aggregation assay (Shannon, J. P., Silva, M. V., Brown, D. C., & Larson, R. S. (2001). Novel cyclic peptide inhibits intercellular adhesion molecule-1-mediated cell aggregation. J. Pept. Res. 58, 140-150; Merchant, S. H., Gurule, D. M., Larson, R. S. (2003). Amelioration of ischemia-reperfusion injury with cyclic peptide blockade of ICAM-1. Am. J. Physiol. Heart Circ. 284,H1260-1268; Larson, R. S., Brown, D. C., and Sklar, L. A. (1997). Retinoic acid induces aggregation of the acute promyelocytic leukemia cell line NB-4 by utilization of LFA-1 and ICAM-2. Blood 90, 2747-2756; Rothlein, R. and Springer, T. A. (1986). The requirement for lymphocyte function-associated antigen 1 in homotypic leukocyte adhesion stimulated by phorbol ester. J. Exp. Med. 163, 1132-1149). Longer incubations (360 minutes) were used here instead of the earlier 120 minute incubations in order to increase the observed differences among peptide antagonists. Of all the amino acid substitutions, replacement of R6 with K, to produce IP02-K6, improved the IC50 the most. […] Alternatively, replacement of L2 or L3 with V (IP02-V2 and IP02-V3) or A8 with L (IP02-L8) abrogated activity, with IC50s exceeding 1,000 μM.

| Molecule | IC50 [µM] |
| --- | --- |
| CC[C@H](C)[C@@H]1NC(=O)[C@@H](N)CSSC[C@@H](C(=O)O)NC(=O)[C@H](C)NC(=O)[C@H](CO)NC(=O)[C@H](CCCNC(=N)N)NC(=O)[C@H](CCSC)NC(=O)[C@H](CCCNC(=N)N)NC(=O)[C@H](CC(C)C)NC1=O [IP02-12, CILRMRSAC] (H-CILRMRSAC-OH; disulfide 1-9; N-terminus and C-terminus assumed) | 105 to 190 |
| CSCC[C@@H]1NC(=O)[C@H](CCCCN)NC(=O)[C@H](CC(C)C)NC(=O)[C@H](CC(C)C)NC(=O)[C@@H](N)CSSC[C@@H](C(=O)O)NC(=O)[C@H](C)NC(=O)[C@H](CO)NC(=O)[C@H](CCCNC(=N)N)NC1=O [IP02-K4, CLLKMRSAC] (H-CLLKMRSAC-OH; disulfide 1-9; N-terminus and C-terminus assumed) | 105 to 190 |
| CSCC[C@@H]1NC(=O)[C@H](CCCNC(=N)N)NC(=O)[C@H](CC(C)C)NC(=O)[C@H](CC(C)C)NC(=O)[C@@H](N)CSSC[C@@H](C(=O)O)NC(=O)[C@H](CC(C)C)NC(=O)[C@H](CO)NC(=O)[C@H](CCCNC(=N)N)NC1=O [IP02-L8, CLLRMRSLC] (H-CLLRMRSLC-OH; disulfide 1-9; N-terminus and C-terminus assumed) | > 1000 |
| CSCC[C@@H]1NC(=O)[C@H](CCCNC(=N)N)NC(=O)[C@H](CC(C)C)NC(=O)[C@H](C(C)C)NC(=O)[C@@H](N)CSSC[C@@H](C(=O)O)NC(=O)[C@H](C)NC(=O)[C@H](CO)NC(=O)[C@H](CCCNC(=N)N)NC1=O [IP02-V2] (H-CVLRMRSAC-OH; disulfide 1-9; N-terminus and C-terminus assumed) | > 1000 |
| CSCC[C@@H]1NC(=O)[C@H](CCCNC(=N)N)NC(=O)[C@H](C(C)C)NC(=O)[C@H](CC(C)C)NC(=O)[C@@H](N)CSSC[C@@H](C(=O)O)NC(=O)[C@H](C)NC(=O)[C@H](CO)NC(=O)[C@H](CCCNC(=N)N)NC1=O [IP02-V3] (H-CLVRMRSAC-OH; disulfide 1-9; N-terminus and C-terminus assumed) | > 1000 |
| CSCC[C@@H]1NC(=O)[C@H](CCCNC(=N)N)NC(=O)[C@H](CC(C)C)NC(=O)[C@H](CC(C)C)NC(=O)[C@@H](N)CSSC[C@@H](C(=O)O)NC(=O)[C@H](C(C)C)NC(=O)[C@H](CO)NC(=O)[C@H](CCCNC(=N)N)NC1=O [IP02-V8] (H-CLLRMRSVC-OH; disulfide 1-9; N-terminus and C-terminus assumed) | 700 |

same assay, conditions: cell aggregation, unit μm [sic]

| Molecule | IC50 [µM] |
| --- | --- |
| CC[C@H](C)[C@@H]1NC(=O)[C@H](CC(C)C)NC(=O)[C@@H](N)CSSC[C@@H](C(=O)O)NC(=O)[C@H](C)NC(=O)[C@H](CO)NC(=O)[C@H](CCCNC(=N)N)NC(=O)[C@H](CCSC)NC(=O)[C@H](CCCNC(=N)N)NC1=O [IP02-13, CLIRMRSAC] (H-CLIRMRSAC-OH; disulfide 1-9; N-terminus and C-terminus assumed) | ~700 |
| CSCC[C@@H]1NC(=O)[C@H](CCCNC(=N)N)NC(=O)[C@H](CC(C)C)NC(=O)[C@H](CC(C)C)NC(=O)[C@@H](N)CSSC[C@@H](C(=O)O)NC(=O)[C@H](C(C)C)NC(=O)[C@H](CO)NC(=O)[C@H](CCCNC(=N)N)NC1=O [IP02-V8] (H-CLLRMRSVC-OH; disulfide 1-9; N-terminus and C-terminus assumed) | ~700 |
